Source: article PMC3929087

Key:
[1] = cellular trafficking, method not given; conditions: glycan lost; control: wild type
[2] = secretion into CHO culture medium (unpublished data); conditions: glycan lost; control: wild type

B1: angiotensin I-converting enzyme (somatic ACE): N1162Q (protein)
parent chain: MGAASGRRGPGLLLPLPLLLLLPPQPALALDPGLQPGNFSADEAGAQLFAQSYNSSAEQVLFQSVAASWAHDTNITAENARRQEEAALLSQEFAEAWGQKAKELYEPIWQNFTDPQLRRIIGAVRTLGSANLPLAKRQQYNALLSNMSRIYSTAKVCLPNKTATCWSLDPDLTNILASSRSYAMLLFAWEGWHNAAGIPLKPLYEDFTALSNEAYKQDGFTDTGAYWRSWYNSPTFEDDLEHLYQQLEPLYLNLHAFVRRALHRRYGDRYINLRGPIPAHLLGDMWAQSWENIYDMVVPFPDKPNLDVTSTMLQQGWNATHMFRVAEEFFTSLELSPMPPEFWEGSMLEKPADGREVVCHASAWDFYNRKDFRIKQCTRVTMDQLSTVHHEMGHIQYYLQYKDLPVSLRRGANPGFHEAIGDVLALSVSTPEHLHKIGLLDRVTNDTESDINYLLKMALEKIAFLPFGYLVDQWRWGVFSGRTPPSRYNFDWWYLRTKYQGICPPVTRNETHFDAGAKFHVPNVTPYIRYFVSFVLQFQFHEALCKEAGYEGPLHQCDIYRSTKAGAKLRKVLQAGSSRPWQEVLKDMVGLDALDAQPLLKYFQPVTQWLQEQNQQNGEVLGWPEYQWHPPLPDNYPEGIDLVTDEAEASKFVEEYDRTSQVVWNEYAEANWNYNTNITTETSKILLQKNMQIANHTLKYGTQARKFDVNQLQNTTIKRIIKKVQDLERAALPAQELEEYNKILLDMETTYSVATVCHPNGSCLQLEPDLTNVMATSRKYEDLLWAWEGWRDKAGRAILQFYPKYVELINQAARLNGYVDAGDSWRSMYETPSLEQDLERLFQELQPLYLNLHAYVRRALHRHYGAQHINLEGPIPAHLLGNMWAQTWSNIYDLVVPFPSAPSMDTTEAMLKQGWTPRRMFKEADDFFTSLGLLPVPPEFWNKSMLEKPTDGREVVCHASAWDFYNGKDFRIKQCTTVNLEDLVVAHHEMGHIQYFMQYKDLPVALREGANPGFHEAIGDVLALSVSTPKHLHSLNLLSSEGGSDEHDINFLMKMALDKIAFIPFSYLVDQWRWRVFDGSITKENYNQEWWSLRLKYQGLCPPVPRTQGDFDPGAKFHIPSSVPYIRYFVSFIIQFQFHEALCQAAGHTGPLHKCDIYQSKEAGQRLATAMKLGFSRPWPEAMQLITGQPNMSASAMLSYFKPLLDWLRTENELHGEKLGWPQYNWTPNSARSEGPLPDSGRVSFLGLDLDAQQARVGQWLLLFLGIALLVATLGLSQRLFSIRHRSLHRHSHGPQFGSEVELRHS
- localisation_or_trafficking [1]: no change
- expression_or_secretion [2]: no change
